Source: publication PMC7461980, “High-Level Production of Recombinant Snowdrop Lectin in Sugarcane and Energy Cane” (Frontiers in Bioengineering and Biotechnology, 2020)
Values joined by “and” are separate entries in the source; they are usually repeats but may differ in a detail not shown here. Identical values can stand only once.

B1: recombinant GNA109 (G. nivalis lectin LECGNA2 with four additional amino acids, Thr106 His107 Thr108 Gly109, at the C-terminus of the mature protein) (natural protein, Galanthus nivalis)
chain: DNILYSGETLSTGEFLNYGSFVFIMQEDCNLVLYDVDKPIWATNTGGLSRSCFLSMQTDGNLVVYNPSNKPIWASNTGGQNGNYVCILQKDRNVVIYGTDRWATGTHTG
notes: numbers count on: the mature protein; four additional amino acids Thr106 His107 Thr108 Gly109 at the C-terminus of the mature protein; Theoretical mass printed: 12,051.42 Da; source: synthesized (GenScript); purified using immobilized mannose
B2: sugarcane recombinant GNA (Galanthus nivalis agglutinin, snowdrop lectin LECGNA2) (natural protein, UniProt P30617 20-128, looked up)
chain: DNILYSGETLSTGEFLNYGSFVFIMQEDCNLVLYDVDKPIWATNTGGLSRSCFLSMQTDGNLVVYNPSNKPIWASNTGGQNGNYVCILQKDRNVVIYGTDRWATG
notes: Galanthus nivalis L. (snowdrop) lectin LECGNA2, expressed from the full-length cDNA (570 bp); the purified product is a band corresponding to mature GNA (about 12.0 kDa); The exact C-terminal end of the processed protein in sugarcane is not determined; native GNA 12,054.41 Da theoretical; also called sugarcane GNA

Assays:
[1] = target: the molecule itself; experiment: MALDI-TOF MS; non-reducing conditions; sinapinic acid matrix; linear delayed positive ion mode; mass range 4,500-50,000 Da
P30617 = experiment: SEC; TSKgel G3000SW xL, HPLC; 50 mM sodium phosphate, 0.3 M NaCl, pH 7.0; non-reducing conditions; 1.0 mL/min; absorbance at 220 and 280 nm; mass standards 6.5-675 kDa
[2] = target: the molecule itself; experiment: as above

| Protein | stoichiometry N [1] | purity (relative peak abundance) of the tetramer (P30617) | stoichiometry N [2] |
| --- | --- | --- | --- |
| B1 | 2 and 3 |  |  |
| B2 | 2 and 3 | The purities of the recombinant GNA monomer and tetramer were 65.5% and 24%, respectively | 4 |
